Measured values as given in patent US20240287172A1 (SCIRHOM, published 2024).
Residue numbers refer to the chain shown, from its start.

Assays:
hiR2-FL-M591A-T7 = biological target: T1, hiR2-FL-M591A-T7 (human, UniProt Q6PJF5 1-856); assay: FACS on MEF-DKO cells expressing the variant, 3 µg/ml antibody
T1 sequence: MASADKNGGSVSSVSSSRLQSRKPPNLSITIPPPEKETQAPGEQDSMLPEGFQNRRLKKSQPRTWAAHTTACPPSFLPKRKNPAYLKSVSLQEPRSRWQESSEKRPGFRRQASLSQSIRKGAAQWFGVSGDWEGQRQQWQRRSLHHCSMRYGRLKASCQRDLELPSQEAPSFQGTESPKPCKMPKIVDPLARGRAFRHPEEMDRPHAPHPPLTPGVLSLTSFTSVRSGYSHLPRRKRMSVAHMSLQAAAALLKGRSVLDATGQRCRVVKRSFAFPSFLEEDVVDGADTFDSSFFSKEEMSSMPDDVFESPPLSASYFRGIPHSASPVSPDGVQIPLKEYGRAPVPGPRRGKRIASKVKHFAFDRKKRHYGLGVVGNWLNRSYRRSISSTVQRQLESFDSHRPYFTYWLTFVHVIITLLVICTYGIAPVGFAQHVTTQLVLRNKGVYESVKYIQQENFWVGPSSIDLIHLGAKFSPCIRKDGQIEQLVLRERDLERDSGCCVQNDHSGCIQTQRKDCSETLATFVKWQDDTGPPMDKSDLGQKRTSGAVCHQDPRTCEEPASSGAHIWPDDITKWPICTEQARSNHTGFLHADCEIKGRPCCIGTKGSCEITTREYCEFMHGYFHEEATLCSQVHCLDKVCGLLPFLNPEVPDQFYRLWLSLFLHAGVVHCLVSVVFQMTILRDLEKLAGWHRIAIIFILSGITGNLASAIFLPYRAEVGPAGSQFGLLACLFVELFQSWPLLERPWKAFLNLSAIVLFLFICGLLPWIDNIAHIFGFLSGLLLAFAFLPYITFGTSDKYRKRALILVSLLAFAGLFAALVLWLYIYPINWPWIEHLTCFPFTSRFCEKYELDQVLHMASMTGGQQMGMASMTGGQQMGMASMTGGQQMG
Summary of the method: (§1)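 Read-out is PE fluorescence by flow cytometry after two-step staining: antibody at 3 μg/ml for 1 hour on ice, then PE-labelled goat anti-mouse IgG F(ab′)2 (1:100) for 1 hour on ice.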

hiR2-FL-T586A-T7 = biological target: T2, hiR2-FL-T586A-T7 (human, UniProt Q6PJF5 1-856); assay: as above
T2 sequence: T1 sequence with T586A, A591M
Summary of the method: as §1

B1: antibody 48 (antibody, V domains shown)
VH: QVQLQQSGTELVRPGTSVKVSCKASGYAFTNYLIEWVKQRPGQGLEWIGVINPGSGFTKYNEKFKGKATLTADKSSSTVYMHLSSLTSEDSAVYFCARGLYRAMDYWGQGTSVTVSS
VL: DIQMTQSPASQSASLGESVTITCLASQTIATWLAWYQQKPGKSPQLLIYGATTLADGVPSRFSGGGSGTKFSFKISSLQAEDFVSYYCQQLYSTPYTFGGGTKLEIK
notes: mouse IgG, kappa light chain; also called clone #48; purified antibody 48
hiR2-FL-M591A-T7
  loss of binding vs wild type: ≥ 30%

B2: antibody 50 (antibody, V domains shown)
VH: B1 VH with T9A, T16A, T30S, V79A, H82Q
VL: B1 VL with A30G, G50A, T52A, T53S, S85N, L91I
notes: mouse IgG, kappa light chain; also called clone #50; purified antibody 50
hiR2-FL-M591A-T7
  loss of binding vs wild type: ≥ 30%

B3: antibody 3 (antibody, V domains shown)
VH: QVTLKESGPGILQPSQTLSLTCSFSGFSLTTFAMGIGWVRQPSGKGLEWLAHIWWDGEKYNNPVLKSRLTISKDTSKNQVFLRIANVDTPDTATYYCARISSIYYIIDNWGQGTSVTVSS
VL: DIVLTQSPATLSVTPGHSVSLSCRASQSISNNLHWYQKKSHESPRLLIKYVSQSISGIPSRFSGSGSGTDFTLSINSVETEDFGMYFCQQSYNWPLTFGAGTKLELK
notes: mouse IgG, kappa light chain; also called clone #3; purified antibody 3
hiR2-FL-T586A-T7
  loss of binding vs wild type: ≥ 30%

B4: antibody 5 (antibody, V domains shown)
VH: QVTLKESGPGILQPSQTLSLTCSFSGFSLSTFGMGVGWIRQPSGKGLEWLAHIWWDDEKYYNSALKSRLTISKATSKNQAFLKIANVDTADTATYYCARISNYGSNYWYFNVWGTGTTVTVSS
VL: QVVLTQSPALMSASPGEKVTMTCSAGSSVSCMYWYQQKPGSSPRVLIYDTSNLASGVPARFTGSGSGTSYSLTISRMEAEDAASYYCQQWNSYPLTFGAGTKLELK
notes: mouse IgG, kappa light chain; also called clone #5; purified antibody 5
hiR2-FL-T586A-T7
  loss of binding vs wild type: ≥ 30%
